Changes are numbered by the printed parent chain.
T1: human interleukin 3 (IL3), expressed on microarray cells (human, UniProt P08700 20-152)
T1 construct: also called hIL3
T1 sequence: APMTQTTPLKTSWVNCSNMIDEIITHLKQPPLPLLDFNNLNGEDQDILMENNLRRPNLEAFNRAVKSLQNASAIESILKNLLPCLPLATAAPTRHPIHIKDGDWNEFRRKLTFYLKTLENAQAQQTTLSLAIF

T2: Mouse SCA1 (LY6A), on cells (mouse, UniProt P05533 27-112)
T2 construct: whole, on cells; also called mouse LY6A
T2 sequence: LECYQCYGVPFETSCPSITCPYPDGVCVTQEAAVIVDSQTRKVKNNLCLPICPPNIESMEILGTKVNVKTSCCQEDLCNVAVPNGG

T3: mouse LRP6-E3E4 (C-half, AA 629-1244) tagged with Fc (mouse IgG2a) (mouse, UniProt O88572 629-1244)
T3 construct: not shown: mouse IgG2a Fc
T3 sequence: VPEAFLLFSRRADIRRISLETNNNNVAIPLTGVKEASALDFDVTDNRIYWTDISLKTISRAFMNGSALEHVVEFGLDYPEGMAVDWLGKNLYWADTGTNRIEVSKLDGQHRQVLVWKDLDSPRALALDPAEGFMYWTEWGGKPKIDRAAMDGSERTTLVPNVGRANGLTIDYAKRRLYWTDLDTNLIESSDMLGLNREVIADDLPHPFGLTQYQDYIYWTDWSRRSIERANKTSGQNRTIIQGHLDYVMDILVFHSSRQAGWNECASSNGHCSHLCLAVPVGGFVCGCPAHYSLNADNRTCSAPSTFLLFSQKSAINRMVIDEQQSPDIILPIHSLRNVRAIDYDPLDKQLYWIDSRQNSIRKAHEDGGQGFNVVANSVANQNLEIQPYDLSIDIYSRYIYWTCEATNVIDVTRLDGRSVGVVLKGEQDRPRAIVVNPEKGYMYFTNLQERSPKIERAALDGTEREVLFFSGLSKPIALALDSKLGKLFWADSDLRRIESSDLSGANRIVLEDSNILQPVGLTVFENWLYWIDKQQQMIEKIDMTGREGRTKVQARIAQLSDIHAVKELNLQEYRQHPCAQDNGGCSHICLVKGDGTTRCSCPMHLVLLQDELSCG

T4: mouse LRP6-E1E2 (N-half, AA 20-628) tagged with Fc (mouse IgG2a) (mouse, UniProt O88572 20-628)
T4 construct: not shown: mouse IgG2a Fc
T4 sequence: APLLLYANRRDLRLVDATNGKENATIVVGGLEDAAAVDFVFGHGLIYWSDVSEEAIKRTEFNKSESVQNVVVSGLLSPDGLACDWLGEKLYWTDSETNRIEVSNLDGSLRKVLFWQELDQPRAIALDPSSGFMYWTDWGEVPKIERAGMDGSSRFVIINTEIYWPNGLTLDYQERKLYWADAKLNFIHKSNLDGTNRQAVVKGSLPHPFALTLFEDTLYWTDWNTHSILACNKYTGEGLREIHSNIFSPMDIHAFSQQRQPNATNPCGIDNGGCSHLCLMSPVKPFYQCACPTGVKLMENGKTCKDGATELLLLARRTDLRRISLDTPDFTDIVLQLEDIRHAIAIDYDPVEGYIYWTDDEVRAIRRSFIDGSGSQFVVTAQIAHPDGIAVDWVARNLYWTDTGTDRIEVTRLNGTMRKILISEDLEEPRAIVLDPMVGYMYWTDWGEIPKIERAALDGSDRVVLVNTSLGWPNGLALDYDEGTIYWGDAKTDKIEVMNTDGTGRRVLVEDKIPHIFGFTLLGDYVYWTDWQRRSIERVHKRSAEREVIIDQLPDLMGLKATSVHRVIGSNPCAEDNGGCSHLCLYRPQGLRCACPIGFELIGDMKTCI

B1: AAV.CAP-B22 (other)
chain: MAADGYLPDWLEDNLSEGIREWWALKPGAPQPKANQQHQDNARGLVLPGYKYLGPGNGLDKGEPVNAADAAALEHDKAYDQQLKAGDNPYLKYNHADAEFQERLKEDTSFGGNLGRAVFQAKKRLLEPLGLVEEAAKTAPGKKRPVEQSPQEPDSSAGIGKSGAQPAKKRLNFGQTGDTESVPDPQPIGEPPAAPSGVGSLTMASGGGAPVADNNEGADGVGSSSGNWHCDSQWLGDRVITTSTRTWALPTYNNHLYKQISNSTSGGSSNDNAYFGYSTPWGYFDFNRFHCHFSPRDWQRLINNNWGFRPKRLNFKLFNIQVKEVTDNNGVKTIANNLTSTVQVFTDSDYQLPYVLGSAHEGCLPPFPADVFMIPQYGYLTLNDGSQAVGRSSFYCLEYFPSQMLRTGNNFQFSYEFENVPFHSSYAHSQSLDRLMNPLIDQYLYYLSRTIDGQSSKSQTLKFSVAGPSNMAVQGRNYIPGPSYRQQRVSTTVTQNNNSEFAWPGASSWALNGRNSLMNPGPAMASHKEGEDRFFPLSGSLIFGKQGTGRDNVDADKVMITNEEEIKTTNPVATESYGQVATNHQSDGTLAVPFKAQAQTGWVQNQGILPGMVWQDRDVYLQGPIWAKIPHTDGNFHPSPLMGGFGMKHPPPQILIKNTPVPADPPTAFNKDKLNSFITQYSTGQVSVEIEWELQKENSKRWNPEIQYTSNYYKSNNVEFAVNTEGVYSEPRPIGTRYLTRNL
notes: also called AAV9.CAP-B22
B2: AAV-MaCPNS1 (other)
chain: MAADGYLPDWLEDNLSEGIREWWALKPGAPQPKANQQHQDNARGLVLPGYKYLGPGNGLDKGEPVNAADAAALEHDKAYDQQLKAGDNPYLKYNHADAEFQERLKEDTSFGGNLGRAVFQAKKRLLEPLGLVEEAAKTAPGKKRPVEQSPQEPDSSAGIGKSGAQPAKKRLNFGQTGDTESVPDPQPIGEPPAAPSGVGSLTMASGGGAPVADNNEGADGVGSSSGNWHCDSQWLGDRVITTSTRTWALPTYNNHLYKQISNSTSGGSSNDNAYFGYSTPWGYFDFNRFHCHFSPRDWQRLINNNWGFRPKRLNFKLFNIQVKEVTDNNGVKTIANNLTSTVQVFTDSDYQLPYVLGSAHEGCLPPFPADVFMIPQYGYLTLNDGSQAVGRSSFYCLEYFPSQMLRTGNNFQFSYEFENVPFHSSYAHSQSLDRLMNPLIDQYLYYLSRTINGSGQNQQTLKFSVAGPSNMAVQGRNYIPGPSYRQQRVSTTVTQNNNSEFAWPGASSWALNGRNSLMNPGPAMASHKEGEDRFFPLSGSLIFGKQGTGRDNVDADKVMITNEEEIKTTNPVATESYGQVATNHQSAQPHEGSSRAQAQTGWVQNQGILPGMVWQDRDVYLQGPIWAKIPHTDGNFHPSPLMGGFGMKHPPPQILIKNTPVPADPPTAFNKDKLNSFITQYSTGQVSVEIEWELQKENSKRWNPEIQYTSNYYKSNNVEFAVNTEGVYSEPRPIGTRYLTRNL
B3: AAV-BI30 (other)
chain: B2 chain with P589N, H590N, E591S, G592T, S593R, S594G, R595G
B4: AAV-MaCPNS2 (other)
chain: B2 chain with H590N, E591A, G592S, S593V, S594N, R595S
notes: also called AAV-MacCPNS2

Columns and labels:
[1] = target: T1, human interleukin 3 (IL3), expressed on …; experiment: cell microarray screen hit (title of Table 4)
[2] = target: T2, Mouse SCA1 (LY6A), on cells; experiment: cell microarray screen hit (membrane)
Method: After these controls, the six-capsid pool was tested in a full screen of approximately 6400 proteins, including 6000 human plasma membrane proteins and secreted and cell surface-tethered proteins, as well as approximately 400 heterodimers. […] To assign these hits to specific capsids, follow-up deconvolution screens were performed with each individual capsid from the pool (FIG. 12E). DNA oligos for the 22 identified hits, as well as the positive control CD86, were affixed in duplicate locations to new slides. A negative control condition with no AAV analyte and a positive control condition with CTLA4-Fc (CD86 binder) were also included.

[3] = target: T2, Mouse SCA1 (LY6A), on cells; experiment: cell microarray, individual capsids, anti-AAV9 detection
Method: To enable higher-throughput screening, the six capsids were tested as a pool. Pooled testing required additional dosage optimizing, first for the individual and then for the collective background binding levels of the included capsids (Table 5).

[4] = target: T3, mouse LRP6-E3E4 (C-half, AA 629-1244) …; experiment: SPR, target-Fc captured on protein A chip, AAV analyte (FIG. 20B)
[5] = target: T4, mouse LRP6-E1E2 (N-half, AA 20-628) …; experiment: as above

Binder | binding result [1] | binding result [2] | binding result [3] | binding result [4] | binding result [5]
B1 | binds | binds | – | – | –
B2 | binds | – | no binding | – | –
B3 | – | – | – | no binding | binds
B4 | binds | – | no binding | – | –
